From article PMC7872222

Target: biotinylated FYCO1 peptide (human)
Assay: BLI

For “GABARAP (from UniProt O95166 1-117) (natural protein)”, the Kd was 1400 nM.
